In PMC9482650, “Quantitative fragmentomics allow affinity mapping of interactomes” (Nature Communications, 2022):

Assays:
Assay in all cases: holdup assay
Conditions in all cases: plain residues with an end cap or a label only (N-terminal biotin on a linker: (peg)3)
CNKSR1, Q969H4 = target: T1, CNKSR1, Q969H4
T1 sequence (Q969H4 191-295, limits assumed, looked up): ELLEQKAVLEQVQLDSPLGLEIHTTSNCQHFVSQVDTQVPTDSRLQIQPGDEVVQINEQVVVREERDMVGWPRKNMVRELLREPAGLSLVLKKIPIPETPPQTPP

GIPC3, Q8TF64 = target: GIPC3, Q8TF64
IL16_2, Q14005 = target: IL16_2, Q14005
LMO7, Q8WWI1 = target: LMO7, Q8WWI1
LNX1_4, Q8TBB1 = target: LNX1_4, Q8TBB1
MAGI1_5, Q96QZ7 = target: MAGI1_5, Q96QZ7
MAGI2_1, Q86UL8 = target: T2, MAGI2_1, Q86UL8
T2 sequence (Q86UL8 12-111, limits assumed, looked up): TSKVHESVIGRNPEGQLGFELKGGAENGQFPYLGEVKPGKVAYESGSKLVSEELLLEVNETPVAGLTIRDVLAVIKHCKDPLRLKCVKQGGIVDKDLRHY

MPDZ_2, O75970 = target: T3, MPDZ_2, O75970
T3 sequence (O75970 252-347, limits assumed, looked up): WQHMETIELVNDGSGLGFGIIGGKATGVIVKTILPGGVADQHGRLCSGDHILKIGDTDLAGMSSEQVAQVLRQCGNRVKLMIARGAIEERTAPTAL

MPDZ_7, O75970 = target: T4, MPDZ_7, O75970
T4 sequence (O75970 1146-1253, limits assumed, looked up): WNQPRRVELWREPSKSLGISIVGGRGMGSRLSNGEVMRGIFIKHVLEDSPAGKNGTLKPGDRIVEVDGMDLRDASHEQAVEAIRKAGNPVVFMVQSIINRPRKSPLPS

MPP1, Q00013 = target: T5, MPP1, Q00013
T5 sequence (Q00013 66-162, limits assumed, looked up): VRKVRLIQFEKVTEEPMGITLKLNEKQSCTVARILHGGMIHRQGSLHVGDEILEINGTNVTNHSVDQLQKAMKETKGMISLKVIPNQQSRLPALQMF

PARD3B_3, Q8TEW8 = target: PARD3B_3, Q8TEW8
PARD3_1, Q8TEW0 = target: PARD3_1, Q8TEW0
PARD6B, Q9BYG5 = target: T6, PARD6B, Q9BYG5
T6 sequence (Q9BYG5 152-260, limits assumed, looked up): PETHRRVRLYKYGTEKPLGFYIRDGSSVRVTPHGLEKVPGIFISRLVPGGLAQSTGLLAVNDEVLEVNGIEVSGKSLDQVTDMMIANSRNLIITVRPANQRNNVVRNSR

PARD6G, Q9BYG4 = target: T7, PARD6G, Q9BYG4
T7 sequence (Q9BYG4 153-261, limits assumed, looked up): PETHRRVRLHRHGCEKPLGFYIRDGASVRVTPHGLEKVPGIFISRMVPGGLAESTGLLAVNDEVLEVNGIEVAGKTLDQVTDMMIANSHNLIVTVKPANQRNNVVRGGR

PDLIM3, Q53GG5 = target: T8, PDLIM3, Q53GG5
T8 sequence (Q53GG5 1-94, limits assumed, looked up): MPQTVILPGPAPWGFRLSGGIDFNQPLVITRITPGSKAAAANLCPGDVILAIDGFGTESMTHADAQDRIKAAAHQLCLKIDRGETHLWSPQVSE

PDZD2_1, O15018 = target: T9, PDZD2_1, O15018
T9 sequence (O15018 80-192, limits assumed, looked up): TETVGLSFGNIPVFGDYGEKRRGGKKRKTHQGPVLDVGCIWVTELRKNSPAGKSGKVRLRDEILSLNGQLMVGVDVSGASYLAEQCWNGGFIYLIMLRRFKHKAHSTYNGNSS

PDZD2_5, O15018 = target: T10, PDZD2_5, O15018
T10 sequence (O15018 2617-2716, limits assumed, looked up): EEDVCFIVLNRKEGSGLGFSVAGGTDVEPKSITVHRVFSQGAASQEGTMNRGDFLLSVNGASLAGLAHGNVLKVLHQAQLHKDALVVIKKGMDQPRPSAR

PDZD9, Q8IXQ8 = target: PDZD9, Q8IXQ8
PTPN13_2, Q12923 = target: PTPN13_2, Q12923
PTPN13_4, Q12923 = target: T11, PTPN13_4, Q12923
T11 sequence (Q12923 1783-1878, limits assumed, looked up): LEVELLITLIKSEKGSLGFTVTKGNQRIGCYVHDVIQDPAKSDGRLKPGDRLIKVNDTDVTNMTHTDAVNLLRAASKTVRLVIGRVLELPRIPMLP

SHROOM3, Q8TF72 = target: T12, SHROOM3, Q8TF72
T12 sequence (Q8TF72 20-120, limits assumed, looked up): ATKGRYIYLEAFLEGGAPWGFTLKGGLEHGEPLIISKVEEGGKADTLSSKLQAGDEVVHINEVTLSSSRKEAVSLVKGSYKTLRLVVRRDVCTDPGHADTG

SYNPO2L, Q9H987 = target: T13, SYNPO2L, Q9H987
T13 sequence (Q9H987 1-98, limits assumed, looked up): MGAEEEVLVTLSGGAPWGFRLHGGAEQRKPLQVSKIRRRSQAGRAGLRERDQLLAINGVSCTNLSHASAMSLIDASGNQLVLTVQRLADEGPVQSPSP

TJP3_2, O95049 = target: T14, TJP3_2, O95049
T14 sequence (O95049 190-282, limits assumed, looked up): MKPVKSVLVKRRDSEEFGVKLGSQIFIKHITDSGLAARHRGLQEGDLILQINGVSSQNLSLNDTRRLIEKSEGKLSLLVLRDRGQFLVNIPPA

Sequence of PARD3_1, Q8TEW0 (Q8TEW0 264-372): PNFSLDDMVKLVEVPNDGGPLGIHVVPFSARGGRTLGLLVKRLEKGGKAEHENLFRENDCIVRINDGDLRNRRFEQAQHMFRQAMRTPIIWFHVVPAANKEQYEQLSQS
Sequence of PARD3B_3, Q8TEW8 (Q8TEW8 490-594): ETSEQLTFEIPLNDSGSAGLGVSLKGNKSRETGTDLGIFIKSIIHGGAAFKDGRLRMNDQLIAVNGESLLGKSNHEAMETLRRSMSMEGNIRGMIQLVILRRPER
Sequence of LNX1_4, Q8TBB1 (Q8TBB1 631-726): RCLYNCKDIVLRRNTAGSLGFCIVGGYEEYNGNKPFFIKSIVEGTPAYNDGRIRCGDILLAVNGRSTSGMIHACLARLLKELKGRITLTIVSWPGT
Sequence of GIPC3, Q8TF64 (Q8TF64 107-202): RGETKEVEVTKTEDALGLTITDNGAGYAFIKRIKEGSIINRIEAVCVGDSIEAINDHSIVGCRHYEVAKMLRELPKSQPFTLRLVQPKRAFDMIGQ
Sequence of PDZD9, Q8IXQ8 (Q8IXQ8 23-120): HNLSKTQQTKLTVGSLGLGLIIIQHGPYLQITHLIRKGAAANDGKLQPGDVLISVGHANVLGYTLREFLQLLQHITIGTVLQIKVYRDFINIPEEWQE
Sequence of IL16_2, Q14005 (Q14005 350-450): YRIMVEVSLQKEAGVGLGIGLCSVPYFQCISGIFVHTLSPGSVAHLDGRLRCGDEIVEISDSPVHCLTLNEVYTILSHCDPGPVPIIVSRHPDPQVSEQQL
Sequence of MAGI1_5, Q96QZ7 (Q96QZ7 986-1098): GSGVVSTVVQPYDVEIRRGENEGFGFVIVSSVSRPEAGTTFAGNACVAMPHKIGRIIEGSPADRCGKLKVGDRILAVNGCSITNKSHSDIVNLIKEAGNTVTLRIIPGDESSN
Sequence of LMO7, Q8WWI1 (Q8WWI1 1037-1138): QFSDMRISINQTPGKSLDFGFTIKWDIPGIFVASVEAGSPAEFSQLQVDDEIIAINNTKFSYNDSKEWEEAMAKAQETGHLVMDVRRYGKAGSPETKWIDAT
Sequence of PTPN13_2, Q12923 (Q12923 1363-1462): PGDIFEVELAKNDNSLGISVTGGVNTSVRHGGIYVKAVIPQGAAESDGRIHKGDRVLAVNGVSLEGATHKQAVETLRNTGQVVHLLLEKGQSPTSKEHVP

**Q.** For NLNSSEGVPDLLV [SARS-CoV-E, P59637], which pKd (CNKSR1, Q969H4) is on record?
**A.** below the threshold

**Q.** What about the pKd (GIPC3, Q8TF64) of the same binder?
**A.** below the threshold

**Q.** And the pKd (IL16_2, Q14005)?
**A.** below the threshold

**Q.** And the pKd (LMO7, Q8WWI1)?
**A.** below the threshold

**Q.** And the pKd (LNX1_4, Q8TBB1)?
**A.** below the threshold

**Q.** And the pKd (MAGI1_5, Q96QZ7)?
**A.** below the threshold

**Q.** What about the pKd (MAGI2_1, Q86UL8) of the same binder?
**A.** below the threshold

**Q.** What about the pKd (MPDZ_2, O75970) of the same binder?
**A.** below the threshold

**Q.** What about the pKd (MPDZ_7, O75970) of the same binder?
**A.** below the threshold

**Q.** What about the pKd (MPP1, Q00013) of the same binder?
**A.** below the threshold

**Q.** And the pKd (PARD3B_3, Q8TEW8)?
**A.** below the threshold

**Q.** And the pKd (PARD3_1, Q8TEW0)?
**A.** 3.79

**Q.** And the pKd (PARD6B, Q9BYG5)?
**A.** below the threshold

**Q.** And the pKd (PARD6G, Q9BYG4)?
**A.** below the threshold

**Q.** What about the pKd (PDLIM3, Q53GG5) of the same binder?
**A.** below the threshold

**Q.** And the pKd (PDZD2_1, O15018)?
**A.** below the threshold

**Q.** And the pKd (PDZD2_5, O15018)?
**A.** below the threshold

**Q.** And the pKd (PDZD9, Q8IXQ8)?
**A.** below the threshold

**Q.** What about the pKd (PTPN13_2, Q12923) of the same binder?
**A.** below the threshold

**Q.** And the pKd (PTPN13_4, Q12923)?
**A.** 4.64

**Q.** What about the pKd (SHROOM3, Q8TF72) of the same binder?
**A.** below the threshold

**Q.** And the pKd (SYNPO2L, Q9H987)?
**A.** below the threshold

**Q.** What about the pKd (TJP3_2, O95049) of the same binder?
**A.** below the threshold
